How the values were obtained:
[1] = target: T1, Monomeric Trop-2 extracellular domain prepared from papain digestion of Trop-2-Fc fusion protein (human, UniProt P09758 27-274); experiment: SPR (Biacore), mouse IgG captured by anti-mouse IgG, monomeric Trop-2 ECD as analyte
T1 construct: also called huTrop-2
T1 sequence: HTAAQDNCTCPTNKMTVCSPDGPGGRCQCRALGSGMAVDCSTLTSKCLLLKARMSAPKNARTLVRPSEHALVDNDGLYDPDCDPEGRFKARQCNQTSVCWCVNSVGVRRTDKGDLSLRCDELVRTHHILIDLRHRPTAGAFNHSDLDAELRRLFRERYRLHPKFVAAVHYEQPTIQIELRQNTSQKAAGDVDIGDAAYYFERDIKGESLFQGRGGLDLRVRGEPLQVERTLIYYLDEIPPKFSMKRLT
Description: The affinities of anti-Trop-2 mouse antibodies generated from hybridomas were measured on a surface plasmon resonance Biacore™ 2000 or 3000 biosensor equipped with a research-grade CM5 sensor chip (Biacore™ AB, Uppsala, Sweden—now GE Healthcare). Anti-mouse IgG was first amine coupled to the CM5 sensor surface. Various anti-Trop-2 mouse IgGs were then captured by anti-mouse IgG. Monomeric Trop-2 extracellular domain prepared from papain digestion of Trop-2-Fc fusion protein was then injected as the analyte at 3 fold dilution series.

Human Trop-2-mFc protein = target: T2, Human Trop-2-mFc protein (human, UniProt P09758 27-274); experiment: SPR (Biacore 2000), human Trop-2-mFc captured by anti-mouse Fc, Fab as analyte
T2 construct: also called huTrop-2; not shown: mouse Fc
T2 sequence: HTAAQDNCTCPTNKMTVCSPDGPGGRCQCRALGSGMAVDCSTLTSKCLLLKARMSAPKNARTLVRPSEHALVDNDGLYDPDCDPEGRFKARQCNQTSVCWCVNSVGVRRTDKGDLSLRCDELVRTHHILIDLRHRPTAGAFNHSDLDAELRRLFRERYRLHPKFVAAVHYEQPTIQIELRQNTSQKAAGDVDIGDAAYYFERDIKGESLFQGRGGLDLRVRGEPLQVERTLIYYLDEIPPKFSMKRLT

[2] = target: T3, Trop-2 on Trop-2 expressing tumor cells (human, UniProt P09758 27-323); experiment: flow cytometry, Colo205 cells (Trop-2+), 1 ug antibody per 300,000 cells
T3 construct: Endogenous Trop-2 of human tumour cell lines; also called Trop-2 positive tumor cells; A431 (Trop-2+++)
T3 sequence: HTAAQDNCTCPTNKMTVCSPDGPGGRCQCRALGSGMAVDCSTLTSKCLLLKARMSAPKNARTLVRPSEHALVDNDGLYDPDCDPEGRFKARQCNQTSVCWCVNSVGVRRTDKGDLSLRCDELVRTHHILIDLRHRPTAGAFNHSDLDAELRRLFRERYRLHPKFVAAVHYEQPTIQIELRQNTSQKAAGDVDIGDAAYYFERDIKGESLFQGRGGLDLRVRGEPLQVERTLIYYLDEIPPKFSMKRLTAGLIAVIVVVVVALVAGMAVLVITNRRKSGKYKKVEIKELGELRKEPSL

[3] = target: T3, Trop-2 on Trop-2 expressing tumor cells; experiment: flow cytometry, A431 cells (Trop-2+++), 1 ug antibody per 300,000 cells

B1: anti-Trop-2 mouse antibody 6G11 (antibody, mouse IgG2a, V domains shown)
VH: QVQLQQPGAELVRPGASVKLSCKASGYTFTSYWINWVKQRPGHGLEWIGNIYPSDSYSNYNQKFKDKATLTVDKSSSTAYMQVSSPTSEDSAVYYCTYGSSFDYWGQGTTVTVSS
VL: DILLTQSPAILSVSPGERVSFSCRASQTIGTSIHWYQQRTNGSPRLLIKYASESISGIPSRFSGSGSGTDFTLSINSVESEDIADYYCQQSNSWPFTFGSGTKLEIK
notes: also called m6G11
B1 gave a Kd [1] of 31.8 nM, a koff [1] of 0.0086 s⁻¹ and a kon [1] of 270000 M⁻¹ s⁻¹.

B2: Human 6G11 WT Fab fragment (Fab, V domains shown)
VH: QVQLVQSGAEVKKPGASVKVSCKASGYTFTSYWINWVRQAPGQGLEWMGNIYPSDSYSNYNQKFKDRVTMTRDTSTSTVYMELSSLRSEDTAVYYCARGSSFDYWGQGTLVTVSS
VL: EIVLTQSPATLSLSPGERATLSCRASQTIGTSIHWYQQKPGQAPRLLIYYASESISGIPARFSGSGSGTDFTLTISSLEPEDFAVYYCQQSNSWPFTFGQGTKLEIK
notes: Fab; also called h6G11_WT; h6G11
Binder B2 has a Kd (Human Trop-2-mFc protein) of 27 nM, a koff (Human Trop-2-mFc protein) of 0.0096 s⁻¹ and a kon (Human Trop-2-mFc protein) of 360000 M⁻¹ s⁻¹.

B3: Human 6G11_FKG_SF Fab fragment (Fab, V domains shown)
VH: QVQLVQSGAEVKKPGASVKVSCKASGYTFTSYWINWVRQAPGQGLEWMGNIFPSDSYSNYNKKFKDRVTMTRDTSTSTVYMELSSLRSEDTAVYYCARGSGFDYWGQGTLVTVSS
VL: EIVLTQSPATLSLSPGERATLSCRASQTIGTSIHWYQQKPGQAPRLLIYYASESISGIPARFSGSGSGTDFTLTISSLEPEDFAVYYCSQSFSWPFTFGQGTKLEIK
notes: Fab
Work on B3 yielded a Kd (Human Trop-2-mFc protein) of 0.6 nM, a koff (Human Trop-2-mFc protein) of 0.00038 s⁻¹ and a kon (Human Trop-2-mFc protein) of 640000 M⁻¹ s⁻¹.

B4: chimeric mouse anti-Trop-2 6G11 antibody (human IgG1) (antibody, V domains shown)
VH: QVQLQQPGAELVRPGASVKLSCKASGYTFTSYWINWVKQRPGHGLEWIGNIYPSDSYSNYNQKFKDKATLTVDKSSSTAYMQVSSPTSEDSAVYYCTYGSSFDYWGQGTTVTVSS
VL: DILLTQSPAILSVSPGERVSFSCRASQTIGTSIHWYQQRTNGSPRLLIKYASESISGIPSRFSGSGSGTDFTLSINSVESEDIADYYCQQSNSWPFTFGSGTKLEIK
notes: Expressed in the human IgG1 subtype; also called mouse 6G11
For B4, the “% positive” value [2] was 100%, the MFI [2] was 1670 and the “% positive” value [3] was 99.9%. The MFI [3] was 16200.

Reference: US20140357844A1 (RINAT NEUROSCIENCE, published 2014)
